Assay [1] has as its system MD55A3 cells expressing the out-of-frame tGFP+1 reporter gene. The assay can be described thus: 2D-LC MS/MS full proteome, out-of-frame tGFP+1 reporter. It is filed as cell-based, human. Conditions: IFNγ-treated vs control MD55A3 cells, +1 out-of-frame tGFP. As for the experimental part: For deeper proteome coverage in search of IFNγ-induced frameshifts, IFNγ- or mock treated melanoma cells were lysed and digested as described above, after which dried digests were subjected to basic reversed-phase (HpH-RP) high-performance liquid chromatography for offline peptide fractionation. 250 μg peptides were reconstituted in 95% 10 mM ammonium hydroxide (NH4OH, solvent A)/5% (90% acetonitrile (ACN)/10 mM NH4OH, solvent B) and loaded onto a Phenomenex Kinetex EVO C18 analytical column (150 mm×2.1 mm, particle size 5 μm, 100 Å pores) coupled to an Agilent 1260 HPLC system equipped with a fraction collector. […] All fractions were analyzed by nanoLC-MS/MS on an Orbitrap Fusion Tribrid mass spectrometer equipped with an Easy-nLC1000 system (Thermo Scientific) as described previously^72. […]
Further, the MS data was analyzed by MaxQuant (version 1.6.0.16)74. […] The in-frame protein expression data was further normalized and analyzed using DEP^76, For the frame-shift proteome analysis, the MS data was analyzed by MaxQuant (version 1.6.0.16)^74 with LFQ normalization, and then was scanned against the trans-frame polypeptide database together with the SWISSPROT proteins with Evidence level of 1. […] Only the peptides reproducibly detected across replicates were retained for further analysis, and the list included reverse peptide hits (n=41) (FIG. 4c). […]

Assay [2] relates to A375 cells expressing H2-Kb. Put plainly: H2-Kb-bound SIINFEKL presentation from V5-ATF4(1-63)-tGFP-SIINFEKL reporters. It is filed as cell-based, human. Conditions: IFNγ treatment. The source says:
FIG. 4: Aberrant frameshifted peptides are detected in full proteomes, are presented on HLA class I molecules, and induce peptide-specific T cell response. • (a) Gene set enrichment analysis (GSEA) based depiction of the proteomics data showing the induction of the IFN response and HLA genes following IFN treatment of MD55A3 cells. (b) A volcano plot showing differentially identified proteins as detected by 2D LC-MS/MS on lysates of MD55A3 cells expressing the V5-ATF4(1-63)-tGFP +1 out-of-frame construct. The red arrowhead indicates a peptide identified in the full proteome that corresponds to tGFP that could only have arisen from a frameshifting event. (c) Same analysis as panel b, but for the tryptophan-associated aberrant peptides identified to be reproducibly present in either IFNγ-treated or control conditions. […] (d) Bar graph depicting the median fluorescence intensity (MFI) of H2-Kb-bound SIINFEKL peptides in A375 cells expressing H2-Kb in combination with in-frame (Frame) or +1 out-of-frame (+1) V5-ATF4(1-63)-tGFP-SIINFEKL reporters. […] The panel presents 12 frameshifted peptides detected in the immuno-peptidomics mass spectrometry data of IFNγ and tryptophan deprived (mTRP) samples, which were not detected in the untreated controls. A subset of these were also detected in the fresh tumor metastases (mets) samples of the same patient (MD55). […]

B1: IFNγ: interferon gamma (PeproTech), used at 250 U/mL (protein, UniProt P01579 24-161, looked up)
Interferon gamma: QDPYVKEAENLKKYFNAGHSDVADNGTLFLGILKNWKEESDRKIMQSQIVSFYFKLFKNFKDDQSIQKSVETIKEDMNVKFFNSNKKKRDDFEKLTNYSVTDLNVQRKAIHELIQVMAELSPAAKTGKRKRSQMLFRG
As to B1, in assay [1], the “induction of tGFP reporter peptide expression” value is given as above 30 fold. Moreover, in assay [2] (+1 out-of-frame reporter, IDO1-dependent), the “presentation of +1 out-of-frame SIINFEKL peptide” value is recorded as “strongly stimulated”. For the same molecule, the “presentation of in-frame SIINFEKL peptide” value in assay [2] (in-frame reporter, IDO1-independent) was “mildly induced”.
